This is an account of results in paper PMC7641127, “MCL1 binds and negatively regulates the transcriptional function of tumor suppressor p73” (Cell Death & Disease, 2020).

Test [1] has as its target recombinant MCL1 (human) (UniProt Q07820). Put plainly: fluorescence polarisation; direct FPA: recombinant MCL1 with FITC-peptide, 30 min, 1× PBS pH 7.4; limit of detection of the probe 5 nM. In general terms: Fluorescence polarisation rises when a labelled molecule tumbles more slowly, as on binding a larger partner.
For test [2] the target is unchanged. Put plainly: fluorescence polarisation; competitive FPA: 50 nM recombinant MCL1, 10 nM F-BAK, titration of unlabeled p73 peptide or p73DBD, 1× PBS pH 7.4.
The target in test [3] is recombinant p73 DBD-TD (amino acids 112–398) (human) (UniProt O15350).
recombinant p73 DBD-TD (amino acids 112–398) (human), sequence (O15350 112-398): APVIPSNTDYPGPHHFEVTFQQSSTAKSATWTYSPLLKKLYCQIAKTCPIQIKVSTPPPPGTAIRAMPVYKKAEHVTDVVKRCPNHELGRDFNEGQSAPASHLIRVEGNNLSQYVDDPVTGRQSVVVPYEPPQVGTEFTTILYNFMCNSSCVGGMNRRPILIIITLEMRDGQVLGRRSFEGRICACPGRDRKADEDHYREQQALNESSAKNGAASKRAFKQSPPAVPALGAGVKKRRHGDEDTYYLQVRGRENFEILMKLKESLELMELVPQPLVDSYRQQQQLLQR

Take “N-terminally labeled FITC-p73_(23mer) peptide”: in the test with recombinant MCL1 (human) [1], the Kd was < 5 nM.

With “p73_(23mer) peptide (23 amino acids, from the p73 tetramerization domain), unlabeled”, in the test with recombinant MCL1 (human) [2], the IC50 came out at 982 nM.

Take “recombinant MCL1 (from UniProt Q07820 1-350) (natural protein)”: the decrease in EMSA: binding of 10 μM p73 (DBD-TD) to 1 μM FITC-GADD45 DNA on titration of recombinant MCL1 (10–200 μM), free probe quantified in test [3] was found to be 27%.

By Kd is commonly meant the concentration at which binding is half-saturated. For orientation: IC50 means the midpoint of a concentration-inhibition curve.
